# According to PMC10652100, “Bacterial RNA-free RNase P: Structural and functional characterization of multiple oligomeric forms of a minimal protein-only ribonuclease P” (The Journal of Biological Chemistry, 2023):
# B1: His-tagged Hth1307 (enzyme, Hydrogenobacter thermophilus)
# chain: MDTFVLDTSVFTNPDVYHQFEEDQLGAIENFISLASHTNANFFMPTSVYYEFTKMVSLGDLAPKFELVVRIRSPRKWGLMVPAEFLYEFIEEVRYRINKGLRIAEEHTKEAGKLAEEEVGRVVNRLREKYREALRAGIIDSKEDVDVLLLSYELDAILVSGDEGLRKWADRVGIKLIDPKNLRYIMENLTKVGR
# notes: HARP (RNA-free RNase P) of Hydrogenobacter thermophilus, Hth1307; gene synthesised by Integrated DNA Technologies; Same construct as m2 (pMCSG7, N-terminal His6 and TEV site) with the tag left on; also called His-tagged Hydrogenobacter thermophilus HARP; source: E. coli BL21 Rosetta DE3, purified; not shown: His6, N-terminal, kept; copies: 14
# B2: Hydrogenobacter thermophilus HARP (Hth1307) (enzyme)
# chain: B1 chain
# notes: HARP (RNA-free RNase P) of Hydrogenobacter thermophilus, Hth1307; gene synthesised by Integrated DNA Technologies; Cloned into pMCSG7 (N-terminal His6 tag and TEV site); the tag was removed with TEV protease by the general purification protocol; also called Ht HARP; source: E. coli BL21 Rosetta DE3, purified (Ni-Sepharose, DEAE, TEV cleavage, second Ni-Sepharose, SEC); not shown: His6, …
# B3: Aquifex aeolicus HARP (Aq880) (enzyme)
# chain: MDVFVLDTSVFTNPEIYRTFEEDQRGAMETFIHLALNSRAEFYMPTSVYTEMRKIMDVGELWAEFEMVVKIRSPRRFQLTVPADFLYEFIEELRYRINKGLRIAEEHTREASGCEDVGKLIARLREKYREALRQGILDSKEDVDVLLLAYELDGVLVSADEGLRTWADKIGIKLIDPKNFKNILESLVRHRF
# notes: HARP (RNA-free RNase P) of Aquifex aeolicus, Aq880, 23 kDa; gene synthesised by Integrated DNA Technologies; Cloned into pMCSG7 (N-terminal His6 tag and TEV site); the tag was removed with TEV protease, and residues of the site may be left at the N-terminus (surmised); also called HARP from A. aeolicus; Homolog of Aquifex RNase P; source: E. coli BL21 Rosetta DE3, purified (Ni-Sepharose, DEAE, …)
# Experiments:
# [1] = molecular target: the molecule itself; experiment: native MS; His-tagged Hth1307 in 200 mM ammonium acetate pH 7, nano-electrospray, Q-Exactive UHMR; 500-1000 nM protein
# [2] = molecular target: the molecule itself; experiment: crystal structure; lower molecular weight fraction of Hth1307; 2 M ammonium sulfate, 0.1 M Bis-Tris pH 5.5, 4 C; space group C2221, two protomers in the asymmetric unit; tetramer by crystal symmetry
# [3] = molecular target: the molecule itself; experiment: SEC; analytical, Superdex 200 Increase 5/150 GL, 50 mM Tris pH 8.5, 150 mM NaCl, 1 mM TCEP; Hth1307 from 93.6 nM upwards; A280
# [4] = molecular target: the molecule itself; experiment: SEC; oligomers seen when purifying Aq880 (Superdex 200 pg 16/600; 50 mM Tris pH 8.5, 150 mM NaCl, 1 mM TCEP)
protein,measurement,setting,value
B1,stoichiometry N,[1],14
B2,stoichiometry N,[2],4
same,stoichiometry N,[3],14
B3,stoichiometry N,[4],4
